Measured values reported in article PMC5137425.

What was measured:
[1] = molecular target: Human ubiquitin (monoUb) (human) (UniProt P0CG48); test: NMR titration
[2] = molecular target: C. elegans TDP2 UBA domain, CeTDP2 (41-100) (C. elegans) (UniProt Q9XWG3); test: NMR titration
[3] = molecular target: C. elegans TDP2 UBA domain, CeTDP2 (41-100) (C. elegans) (UniProt Q9XWG3); test: fluorescence polarisation

| Kd [1] | Kd [2] | Kd [3] | Substance |
| --- | --- | --- | --- |
| 100 µM | – | – | C. elegans TDP2 UBA domain, CeTDP2 (41-100) (from UniProt Q9XWG3 41-100) (domain or fragment) |
| – | 120 µM | 40 µM | Human ubiquitin (monoUb) (from UniProt P0CG48 1-76) (natural protein) |
| – | 10.2 µM | – | K63-linked diubiquitin (from UniProt P0CG48 1-76) (complex) |
| – | – | 8.4 µM | K48-linked diubiquitin (from UniProt P0CG48 1-76) (complex) |
